Measurements reported in paper PMC6509496, “Crystal structure of the TreS:Pep2 complex, initiating α-glucan synthesis in the GlgE pathway of mycobacteria” (The Journal of Biological Chemistry, 2019).

T1: Mycobacterium smegmatis trehalose synthase (TreS) (M. smegmatis, UniProt A0R6E0 1-593)
T1 construct: Trehalose synthase TreS of M. smegmatis (MSMEG_6515), cloned from genomic DNA with primers from the start codon to the stop codon; concentrations in the ITC count on the monomer; also called Msm TreS; MsTreS; source: E. coli BL21 (DE3), purified (Ni-NTA, HiTrap Q, Sephacryl S-300HR)
T1 sequence (looked up): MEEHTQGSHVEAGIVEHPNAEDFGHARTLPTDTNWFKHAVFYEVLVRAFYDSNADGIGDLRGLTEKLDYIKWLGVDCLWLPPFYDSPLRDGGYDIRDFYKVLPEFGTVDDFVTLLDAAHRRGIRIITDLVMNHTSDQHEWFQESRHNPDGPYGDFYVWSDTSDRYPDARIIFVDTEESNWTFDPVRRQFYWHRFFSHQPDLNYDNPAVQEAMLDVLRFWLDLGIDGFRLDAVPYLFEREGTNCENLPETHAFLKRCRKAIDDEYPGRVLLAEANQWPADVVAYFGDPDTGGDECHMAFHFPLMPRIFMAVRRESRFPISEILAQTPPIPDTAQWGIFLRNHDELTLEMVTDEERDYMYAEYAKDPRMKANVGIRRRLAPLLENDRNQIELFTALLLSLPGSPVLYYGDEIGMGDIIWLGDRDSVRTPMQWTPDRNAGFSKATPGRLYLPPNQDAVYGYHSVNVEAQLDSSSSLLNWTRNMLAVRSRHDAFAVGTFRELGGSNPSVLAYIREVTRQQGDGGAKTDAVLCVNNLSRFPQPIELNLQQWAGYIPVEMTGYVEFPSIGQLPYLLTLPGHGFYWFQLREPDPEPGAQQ

B1: Mycobacterium tuberculosis trehalose synthase (TreS), wild type (enzyme)
chain: MNEAEHSVEHPPVQGSHVEGGVVEHPDAKDFGSAAALPADPTWFKHAVFYEVLVRAFFDASADGSGDLRGLIDRLDYLQWLGIDCIWLPPFYDSPLRDGGYDIRDFYKVLPEFGTVDDFVALVDAAHRRGIRIITDLVMNHTSESHPWFQESRRDPDGPYGDYYVWSDTSERYTDARIIFVDTEESNWSFDPVRRQFYWHRFFSHQPDLNYDNPAVQEAMIDVIRFWLGLGIDGFRLDAVPYLFEREGTNCENLPETHAFLKRVRKVVDDEFPGRVLLAEANQWPGDVVEYFGDPNTGGDECHMAFHFPLMPRIFMAVRRESRFPISEIIAQTPPIPDMAQWGIFLRNHDELTLEMVTDEERDYMYAEYAKDPRMKANVGIRRRLAPLLDNDRNQIELFTALLLSLPGSPVLYYGDEIGMGDVIWLGDRDGVRIPMQWTPDRNAGFSTANPGRLYLPPSQDPVYGYQAVNVEAQRDTSTSLLNFTRTMLAVRRRHPAFAVGAFQELGGSNPSVLAYVRQVAGDDGDTVLCVNNLSRFPQPIELDLQQWTNYTPVELTGHVEFPRIGQVPYLLTLPGHGFYWFQLTTHEVGAPPTCGGERRL
notes: also called Mtb TreS; WT Mtb TreS
B2: Mycobacterium smegmatis maltokinase (Pep2) (enzyme)
chain: not shown
notes: Maltokinase Pep2 of M. smegmatis, locus MSMEG_6514, 441 residues, cloned from genomic DNA into NdeI/HindIII of pET28a; the printed primers run from the start codon to the stop codon; Monomer by size exclusion; calculated mass 48,800 Da; also called Msm Pep2; MsPep2; source: E. coli BL21 (DE3), purified (Ni-NTA, HiTrap Q, Sephacryl S-300HR)
B3: Mycobacterium smegmatis trehalose synthase (TreS) (enzyme, M. smegmatis, UniProt A0R6E0 1-593, looked up)
chain: T1 sequence (looked up)
notes: Trehalose synthase TreS of M. smegmatis, locus MSMEG_6515, cloned from genomic DNA into NdeI/HindIII of pET28a; the printed primers run from the start codon to the stop codon; calculated tetramer mass 272,000 Da; also called Msm TreS; MSMEG_6515; source: E. coli BL21 (DE3), purified (Ni-NTA, HiTrap Q, Sephacryl S-300HR)
B4: Mycobacterium smegmatis maltokinase (Pep2) (enzyme)
chain: not shown
notes: Maltokinase Pep2 of M. smegmatis (MSMEG_6514); 441 residues; cloned with primers from the start codon to the stop codon; also called Msm Pep2; MsPep2; source: E. coli BL21 (DE3), purified (Ni-NTA, HiTrap Q, Sephacryl S-300HR)
B5: N-terminally truncated M. smegmatis Pep2 (Pep2-Δ70) (domain or fragment)
chain: not shown
notes: Maltokinase Pep2 of M. smegmatis (MSMEG_6514) with a 70-amino acid N-terminal truncation; the whole protein has 441 residues; The first residue 71 follows from the stated 70-residue truncation; also called Msm Pep2-Δ70; source: E. coli BL21 (DE3), purified (as WT Pep2, NaCl 300 mM before ion exchange)

What was measured:
[1] = molecular target: T2, Mycobacterium tuberculosis maltokinase (Pep2) (M. tuberculosis, UniProt O07177); test: SEC; settings: both partners purified
T2 construct: also called Mtb Pep2; MtPep2

[2] = molecular target: the molecule itself; test: SEC
[3] = molecular target: B3; test: ITC; Pep2 (500 μM in the syringe) titrated into TreS (75 μM monomer); 50 mM sodium phosphate pH 7.5, 300 mM NaCl, 10% glycerol, 25 °C; settings: both partners purified
[4] = molecular target: B3; test: AUC; sedimentation equilibrium, 50 mM sodium phosphate pH 6.5, 300 mM NaCl, 10% glycerol, 4 °C; 8000, 9000, 10,000 rpm; TreS alone at 6, 4, 2 μM, 1:1 mixture at 3.75, 2.5, 1.25 μM; single-species model; settings: both partners purified
[5] = molecular target: B3; test: ITC; Pep2 (500 μM in the syringe) titrated into TreS (75 μM monomer); 50 mM sodium phosphate pH 8.5, 300 mM NaCl, 10% glycerol, 25 °C; settings: both partners purified
[6] = molecular target: B3; test: crystal structure; vapor diffusion of mixtures of M. smegmatis TreS and Pep2 at molar ratios 1:1 to 1:2; 9-10% PEG 8000, 4% glycerol, 200 mM MgCl2, 0.1 M Tris-HCl pH 6.7-7.0; 3.6 Å; settings: both partners purified
[7] = molecular target: B3; test: ITC; Pep2 (500 μM in the syringe) titrated into TreS (75 μM monomer); 50 mM sodium phosphate pH 6.5, 300 mM NaCl, 10% glycerol, 25 °C; settings: both partners purified
[8] = molecular target: the molecule itself; test: AUC; sedimentation equilibrium, 50 mM sodium phosphate pH 6.5, 300 mM NaCl, 10% glycerol, 4 °C; 8000, 9000, 10,000 rpm; TreS alone at 6, 4, 2 μM, 1:1 mixture at 3.75, 2.5, 1.25 μM; single-species model
[9] = molecular target: T1, Mycobacterium smegmatis trehalose …; test: ITC; Pep2 titrated to 75 uM TreS in the sample chamber, up to a molar ratio [Pep2]/[TreS] of about 1.5; pH 6.5; 400 mM NaCl; 298 K; settings: both partners purified
[10] = molecular target: T1, Mycobacterium smegmatis trehalose …; test: ITC; Pep2 titrated to 75 uM TreS in the sample chamber, up to a molar ratio [Pep2]/[TreS] of about 1.5; pH 6.5; 300 mM NaCl; 298 K; settings: both partners purified
[11] = molecular target: T1, Mycobacterium smegmatis trehalose …; test: ITC; Pep2 titrated to 75 uM TreS in the sample chamber, up to a molar ratio [Pep2]/[TreS] of about 1.5; pH 6.5; 200 mM NaCl; 298 K; settings: both partners purified
[12] = molecular target: B3; test: ITC; Pep2 (500 μM in the syringe) titrated into TreS (75 μM monomer); 50 mM sodium phosphate pH 6.5, 300 mM NaCl, 10% glycerol, 25 °C; settings: both partners purified; remark: listed apart in the source

With B1 the binding result [1] was “binds” and the “stoichiometry N” value [2] was 4.

In the case of B2, the Ka [3] is reported as 160000 M⁻¹, the Kd [3] is reported as 6.25 µM and the dH [3] is reported as -18.7 kcal/mol. For the same binder, the “stoichiometry N” value [3] was 0.459 ± 0.008, the “stoichiometry N” value [4] was 2 copies of Pep2 per TreS tetramer and the Ka [5] was 28700 M⁻¹. The Kd [5] was 34.8 µM, the dH [5] was -22.3 kcal/mol and the “stoichiometry N” value [5] was 0.22 ± 0.04. For the same binder, the “stoichiometry N” value [6] was 1 Pep2 per TreS protomer, the Ka [7] was 287000 M⁻¹ and the Kd [7] was 3.48 µM. For the same binder, the dH [7] was -31.3 kcal/mol and the “stoichiometry N” value [7] was 0.574 ± 0.007.

With B3 the “stoichiometry N” value [8] was 4.

In the case of B4, the Ka [9] is reported as 210000 M⁻¹, the Kd [9] is reported as 4.8 µM and the “stoichiometry N” value [9] is reported as 0.58 ± 0.01. The Ka [10] was 222000 M⁻¹, the Kd [10] was 4.5 µM and the “stoichiometry N” value [10] was 0.54 ± 0.01. For the same binder, the Ka [11] was 210000 M⁻¹, the Kd [11] was 4.8 µM and the “stoichiometry N” value [11] was 0.79 ± 0.015.

In the case of B5, the Kd [12] is reported as 28.6 µM, the Ka [7] is reported as 35000 M⁻¹ and the Kd [7] is reported as 26.8 µM. The dH [7] was -17.9 kcal/mol and the “stoichiometry N” value [7] was 0.681 ± 0.004.
